For the test, the target named is proMMP-9 (UniProt P14780). Description: cell-based or functional assay.
proMMP-9, sequence (P14780 20-707 limits assumed): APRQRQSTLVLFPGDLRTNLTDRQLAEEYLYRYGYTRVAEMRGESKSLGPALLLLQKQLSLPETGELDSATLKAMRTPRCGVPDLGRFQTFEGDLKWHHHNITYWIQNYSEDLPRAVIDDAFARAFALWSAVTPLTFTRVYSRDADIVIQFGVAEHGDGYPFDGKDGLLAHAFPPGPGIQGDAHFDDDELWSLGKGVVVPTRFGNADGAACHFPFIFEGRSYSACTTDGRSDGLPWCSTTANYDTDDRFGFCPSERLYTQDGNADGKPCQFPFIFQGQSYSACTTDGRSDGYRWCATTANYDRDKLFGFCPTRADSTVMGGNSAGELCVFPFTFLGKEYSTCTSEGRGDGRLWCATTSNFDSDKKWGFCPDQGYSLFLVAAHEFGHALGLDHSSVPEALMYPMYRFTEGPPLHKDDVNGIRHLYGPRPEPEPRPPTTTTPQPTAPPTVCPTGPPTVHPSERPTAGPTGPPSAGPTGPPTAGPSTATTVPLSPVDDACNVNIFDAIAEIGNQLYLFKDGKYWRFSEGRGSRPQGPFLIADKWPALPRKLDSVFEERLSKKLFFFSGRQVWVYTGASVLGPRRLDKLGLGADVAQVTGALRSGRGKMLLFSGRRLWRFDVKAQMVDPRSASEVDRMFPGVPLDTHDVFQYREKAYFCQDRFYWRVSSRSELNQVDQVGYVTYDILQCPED

Substance “TIMP-1-GPI (from UniProt P01033 24-207; P19256 202-237)” came in with a release of proMMP-9 from RCC-53 into the medium (gelatinase zymography); concentration from which a decrease was seen of 10 ng/mL.

For the origin of these results see patent publication US20110105407A1.
